Article PMC6720645, “Structural and Functional Properties of the Capsid Protein of Dengue and Related Flavivirus” (International Journal of Molecular Sciences, 2019)

Target: the molecule itself
Experiment: time-resolved fluorescence anisotropy

B1: Dengue virus serotype 2 capsid protein (natural protein)
chain: MNNQRKKARNTPFNMLKRERNRVSTVQQLTKRFSLGMLQGRGPLKLFMALVAFLRFLTIPPTAGILKRWGTIKKSKAINVLRGFRKEIGRMLNILNRRRR
notes: also called DENV C; C protein
binding result: binds
